Where a chain is given by its changes, count along the chain named. In names and notes the source's numbering stands.
T1: F119L phosphomannomutase2 (human) (UniProt O15305)
T1 sequence: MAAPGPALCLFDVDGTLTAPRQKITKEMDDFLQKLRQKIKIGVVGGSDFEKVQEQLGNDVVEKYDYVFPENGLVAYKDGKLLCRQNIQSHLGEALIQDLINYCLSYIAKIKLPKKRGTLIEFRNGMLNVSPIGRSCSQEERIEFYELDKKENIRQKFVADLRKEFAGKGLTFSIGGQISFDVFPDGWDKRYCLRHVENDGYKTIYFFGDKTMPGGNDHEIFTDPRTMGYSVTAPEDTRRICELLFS

B1: R141H phosphomannomutase2 (enzyme)
chain: T1 sequence with L119F, R141H
B2: wild type phosphomannomutase2 (enzyme, human, UniProt O15305-1 1-246, looked up)
chain: T1 sequence with L119F
notes: Phosphomannomutase2 (PMM2), human, UniProt entry name PMM2_HUMAN; also called wt-PMM2; PMM2
B3: F119L phosphomannomutase2 (enzyme, human, UniProt O15305-1 1-246, looked up)
chain: T1 sequence
notes: Phosphomannomutase2 (PMM2), human, pathological variant p.Phe119Leu (rs80338701); also called hypomorphic mutant

Tests used:
[1] = target: T1, F119L phosphomannomutase2 (human)
[2] = target: the molecule itself; assay: SEC; analytical, BioSep-SEC-S3000 column, Hepes 20 mM pH 7.5, NaCl 150 mM, MgCl2 5 mM, room temperature, 0.5 ml/min; wt-PMM2 10 μg, F119L 7 μg, or mixture of 5 μg wt-PMM2 and 3.5 μg F119L

Binder | corrected specific phosphoglucomutase activity (per amount of F119L) of Superdex75 fractions, F119L:R141H 1:1 to 1:3.5, compared with F119L alone; 5 μM Glc-1,6-P2 and 40 μM Glc-1P [1] | binding result [2]
B1 | 3 fold | –
B2 | – | binds
B3 | – | binds
